Consider one substance from article PMC10493288, “Identification and characterization of a novel chromosomal aminoglycoside 3’-O-phosphotransferase, APH(3′)-Id, from Kluyvera intermedia DW18 isolated from the sewage of an animal farm” (Frontiers in Microbiology, 2023).

Common to all, as to assay: purified protein
Format in all cases: biochemical, Kluyvera intermedia
Holding throughout (details): 1 mM ATP, 1 mM MgCl2, 2 mM KCl, 100 mM HEPES pH 7.5

Series [1] deals with NC[C@@H]1O[C@H](O[C@H]2[C@@H](O)[C@H](O[C@@H]3[C@@H](O)[C@H](N)C[C@H](N)[C@H]3O[C@H]3O[C@H](CO)[C@@H](O)[C@H](O)[C@H]3N)O[C@@H]2CO)[C@H](N)[C@@H](O)[C@@H]1O.
For series [2], the system named is NC[C@H]1O[C@H](O[C@H]2[C@H](O)[C@@H](O[C@H]3O[C@H](CO)[C@@H](O)[C@H](N)[C@H]3O)[C@H](N)C[C@@H]2N)[C@H](O)[C@@H](O)[C@@H]1O.
Series [3] relates to NC[C@H]1O[C@H](O[C@H]2[C@H](O[C@@H]3O[C@H](CO)[C@@H](O)[C@H]3O)[C@@H](O)[C@H](N)C[C@@H]2N)[C@H](N)[C@@H](O)[C@@H]1O.

The Km is the concentration of substrate that gives half-maximal velocity. One may read the kcat as the maximal rate divided by the concentration of active sites. As a reminder, the kcat/Km is the turnover number divided by the Michaelis constant. APH(3′)-Id (Kluyvera intermedia): in series [1], the Km is 12.19 ± 1.56 µM, the kcat was determined as 2.64 ± 0.072 s⁻¹ and the kcat/Km was determined as 218000 ± 21000 M⁻¹ s⁻¹. For the same substance, in series [2], the Km was found to be 10.04 ± 2.95 µM, the kcat amounted to 1.06 ± 0.114 s⁻¹ and the kcat/Km is 110000 ± 18000 M⁻¹ s⁻¹. Besides, in series [3], the Km is 3.831 ± 1.57 µM, the kcat is 1.73 ± 0.023 s⁻¹ and the kcat/Km was determined as 496000 ± 163000 M⁻¹ s⁻¹.
